From publication PMC5443158

Test system: CodY (Streptococcus pneumoniae D39)
Assay: EMSA
Details: lowest CodY concentration giving binding, 10 nM DNA, 5X binding buffer: 20 mM Tris-HCl pH 7.5, 30 mM KCl, 1 mM DTT, 1 mM EDTA, 10% glycerol, room temperature, 30 min (Fig 4A,B) or 20 min (Fig 4C), 20 ul, 8% …

With tpxD promoter probe (FAM) the binding (2 mM H2O2) was 400 nM and the binding (no H2O2, no BCAA) was 600 nM.
